According to PMC7822876, “Structural basis of ribosomal RNA transcription regulation” (Nature Communications, 2020):
Numbering of substitutions follows the chain as printed. Names and notes keep the numbering of the source.

B1: DksA (natural protein, E. coli)
chain: MQEGQNRKTSSLSILAIAGVEPYQEKPGEEYMNEAQLAHFRRILEAWRNQLRDEVDRTVTHMQDEAANFPDPVDRAAQEEEFSLELRNRDRERKLIKKIEKTLKKVEDEDFGYCESCGVEIGIRRLEARPTADLCIDCKTLAEIREKQMAG
notes: DksA used for cryo-EM, with ppGpp (2 mM) in the sample; also called global transcriptional regulator DksA
B2: DksA D137A (natural protein)
chain: B1 chain with D137A

Key:
[1] = molecular target: T1, RNA polymerase β subunit (E. coli, UniProt P0A8V2 1-1342); test: cryo-EM structure; RP-DksA/ppGpp: RNAP (20 μM) preincubated with DksA (100 μM) and ppGpp (2 mM) 5 min at 37 °C in 10 mM HEPES pH 8.0, 50 mM NaCl, 0.1 mM EDTA, 5 mM DTT, 5 mM MgCl2, then rrnBP1 DNA (40 μM) 5 min at 37 °C; 8 mM CHAPSO; two classes, RP1-DksA/ppGpp (3.62 Å) and RP2-DksA/ppGpp (3.58 Å); settings: both partners purified
T1 construct: RNA polymerase β subunit, E. coli; As it stands in the holoenzyme m1; also called βlobe/Si1; βgate loop (βGL)

[2] = molecular target: T2, RNA polymerase β' subunit (E. coli, UniProt P0A8T7 1-1407); test: as above; settings: both partners purified
T2 construct: RNA polymerase β' subunit, E. coli; As it stands in the holoenzyme m1; also called β’clamp; β’clamp-toe (β’CT)

[3] = molecular target: Δσ1.1-RNAP (wild-type core RNAP with σ^70 lacking region 1.1) (E. coli) (UniProt P0A7Z4)
[4] = molecular target: ΔσAL RNAP (wild-type core RNAP with σ^70 lacking the acidic loop) (E. coli) (UniProt P0A7Z4)
[5] = molecular target: β′D256A RNAP (core RNAP with β′ D256A and wild-type σ^70) (E. coli) (UniProt P0A7Z4)
[6] = molecular target: wild-type RNAP (core RNAP with wild-type σ^70, for in vitro transcription) (E. coli) (UniProt P0A7Z4)

Binder	binding result [1]	binding result [2]	K (d,app) of DksA from inhibition of in vitro transcription from rrnBP1 (DksA 10 nM to 10 μM), −ppGpp [3] [µM]	K (d,app) of DksA from inhibition of in vitro transcription from rrnBP1 (DksA 10 nM to 10 μM), +ppGpp (100 μM) [4] [nM]	K (d,app) of DksA from inhibition of in vitro transcription from rrnBP1 (DksA 10 nM to 10 μM), −ppGpp [4] [nM]	K (d,app) of DksA from inhibition of in vitro transcription from rrnBP1 (DksA 10 nM to 10 μM), +ppGpp (100 μM) [5] [nM]	K (d,app) of DksA from inhibition of in vitro transcription from rrnBP1 (DksA 10 nM to 10 μM), −ppGpp [5] [µM]	K (d,app) of DksA from inhibition of in vitro transcription from rrnBP1 (DksA 10 nM to 10 μM), +ppGpp (100 μM) [6] [nM]	K (d,app) of DksA from inhibition of in vitro transcription from rrnBP1 (DksA 10 nM to 10 μM), −ppGpp [6] [nM]	K (d,app) of DksA D137A from inhibition of in vitro transcription from rrnBP1 (DksA 10 nM to 10 μM), +ppGpp (100 μM) [6] [nM]	K (d,app) of DksA D137A from inhibition of in vitro transcription from rrnBP1 (DksA 10 nM to 10 μM), −ppGpp [6] [µM]
B1	binds	binds	> 10	1150	3000	1640	4.54	860	2200	–	–
B2	–	–	–	–	–	–	–	–	–	2440	3.9
